Biological target: CA09 N1 sNAp (stabilized recombinant N1 neuraminidase head of H1N1 A/California/07/2009) (Influenza A virus H1N1 A/California/07/2009)
Assay: cryo-EM structure

## CA09 N1 sNAp (stabilized recombinant N1 neuraminidase head of H1N1 A/California/07/2009) (enzyme)
  stoichiometry N: 4

From publication PMC12316933
